Experiment in all cases: SEC
The target in assay [1] is GltPh-A V355C-S279C, unlabeled (Pyrococcus Horikoshi), O59010.
For assay [2], the target named is GltPh-A A353C-L130C, unlabeled (Pyrococcus Horikoshi), O59010.
Assay [3] deals with GltPh-A V355C-P129C, unlabeled (Pyrococcus Horikoshi), O59010.

B1: GltPh-A V355C-S279C, unlabeled, O59010 1-425 (natural protein)
chain: MGLYRKYIEYPVLQKILIGLILGAIVGLILGHYGYAHAVHTYVKPFGDLFVRLLKMLVMPIVFASLVVGAASISPARLGRVGVKIVVYYLLTSAFAVTLGIIMARLFNPGAGIHLAVGGQQFQPHQAPPLVHILLDIVPTNPFGALANGQVLPTIFFAIILGIAITYLMNSENEKVRKSAETLLDAINGLAEAMYKIVNGVMQYAPIGVFALIAYVMAEQGVHVVGELAKVTAAVYVGLTLQILLVYFVLLKIYGIDPISFIKHAKDAMLTAFVTRSSCGTLPVTMRVAKEMGISEGIYSFTLPLGATINMDGTALYQGVATFFIANALGSHLTVGQQLTIVLTAVLASIGTAGCPGAGAIMLAMVLHSVGLPLTDPNVAAAYAMILGIDAILDMGRTMVNVTGDLTGTAIVAKTEGTLVPR
modifications: not checked
B1 yielded a stoichiometry N in assay [1] of 3.

B2: GltPh-A A353C-L130C, unlabeled, O59010 1-425 (natural protein)
chain: MGLYRKYIEYPVLQKILIGLILGAIVGLILGHYGYAHAVHTYVKPFGDLFVRLLKMLVMPIVFASLVVGAASISPARLGRVGVKIVVYYLLTSAFAVTLGIIMARLFNPGAGIHLAVGGQQFQPHQAPPCVHILLDIVPTNPFGALANGQVLPTIFFAIILGIAITYLMNSENEKVRKSAETLLDAINGLAEAMYKIVNGVMQYAPIGVFALIAYVMAEQGVHVVGELAKVTAAVYVGLTLQILLVYFVLLKIYGIDPISFIKHAKDAMLTAFVTRSSSGTLPVTMRVAKEMGISEGIYSFTLPLGATINMDGTALYQGVATFFIANALGSHLTVGQQLTIVLTAVLASIGTCGVPGAGAIMLAMVLHSVGLPLTDPNVAAAYAMILGIDAILDMGRTMVNVTGDLTGTAIVAKTEGTLVPR
modifications: not checked
B2 returned a stoichiometry N in assay [2] of 3.

B3: GltPh-A V355C-P129C, unlabeled, O59010 1-425 (natural protein)
chain: MGLYRKYIEYPVLQKILIGLILGAIVGLILGHYGYAHAVHTYVKPFGDLFVRLLKMLVMPIVFASLVVGAASISPARLGRVGVKIVVYYLLTSAFAVTLGIIMARLFNPGAGIHLAVGGQQFQPHQAPCLVHILLDIVPTNPFGALANGQVLPTIFFAIILGIAITYLMNSENEKVRKSAETLLDAINGLAEAMYKIVNGVMQYAPIGVFALIAYVMAEQGVHVVGELAKVTAAVYVGLTLQILLVYFVLLKIYGIDPISFIKHAKDAMLTAFVTRSSSGTLPVTMRVAKEMGISEGIYSFTLPLGATINMDGTALYQGVATFFIANALGSHLTVGQQLTIVLTAVLASIGTAGCPGAGAIMLAMVLHSVGLPLTDPNVAAAYAMILGIDAILDMGRTMVNVTGDLTGTAIVAKTEGTLVPR
modifications: not checked
B3 had a stoichiometry N in assay [3] of 3.
